In publication doi:10.1101/2020.03.22.001966:
Each block holds one substance with its values, some of them ahead of it.

How the values were obtained:
Experiment in all cases: SEC
[1] = molecular target: Acinetobacter baumannii BigR (Acinetobacter baumannii)
[2] = molecular target: C9S SqrR, reduced (Rhodobacter capsulatus)
[3] = molecular target: C9S/C41S SqrR (Rhodobacter capsulatus)
[4] = molecular target: C9S/C107S SqrR (Rhodobacter capsulatus)
[5] = molecular target: wild-type SqrR (sulfide quinone reductase repressor), reduced (Rhodobacter capsulatus)

Substance: Acinetobacter baumannii BigR (natural protein)
stoichiometry N [1]: 2

Substance: C9S/C41S SqrR (natural protein)
stoichiometry N [3]: 2

Substance: wild-type SqrR (sulfide quinone reductase repressor), reduced (natural protein)
stoichiometry N [5]: 2

More lines, now with the values ahead:

stoichiometry N [2]: 2
Substance: C9S SqrR, reduced (natural protein)

stoichiometry N [4]: 2
Substance: C9S/C107S SqrR (natural protein)
